Measured values taken from patent publication US20220175920A1 (INSERM INSTITUT NATIONAL DE LA SANTE ET DE LA RECHERCHE …, published 2022).

B1: anti-CD40 12E12 human IgG4 antibody (antibody, V domains shown)
VH: EVQLVESGGGLVQPGGSLKLSCATSGFTFSDYYMYWVRQAPGKGLEWVAYINSGGGSTYYPDTVKGRFTISRDNAKNTLYLQMNSLRAEDTAVYYCARRGLPFHAMDYWGQGTLVTVSS
VL: DIQMTQSPSSLSASVGDRVTITCSASQGISNYLNWYQQKPGKAVKLLIYYTSILHSGVPSRFSGSGSGTDYTLTISSLQPEDFATYYCQQFNKLPPTFGGGTK
notes: also called mAb6 [12E12]; anti-CD40 12E12 IgG4
B2: anti-CD40 11B6 human IgG4 antibody (antibody, V domains shown)
VH: EVQLVQSGAEVKKPGASVKISCKASGYSFTGYYMHWVKQAHGQGLEWIGRINPYNGATSYNQNFKDRATLTVDKSTSTAYMELSSLRSEDTAVYYCAREDYVYWGQGTTVTVSS
VL: DVVMTQSPLSLPVTLGQPASISCRSSQSLVHSNGNTYLHWYQQRPGQSPRLLIYKVSNRFSGVPDRFSGSGSGTDFTLKISRVEAEDVGVYFCSQSTHVPWTFGGGTKLEIKR
notes: also called mAb1 [11B6 VH/VkV2]; PAB3405
B3: anti-CD40 24A3 human IgG4 antibody (antibody, V domains shown)
VH: DVQLQESGPDLVKPSQSLSLTCTVTGYSITSDYSWHWIRQFPGNKLEWMGYIYYSGSTNYNPSLKSRISITRDTSKNQFFLQLNSVTTEDSATYFCARFYYGYSFFDYWGQGTTLTVSS
VL: QIVLTQSPAFMSASPGEKVTMTCSASSSVSYMHWYQQKSGTSPKRWIYDTSKLASGVPARFSGSGSGTSYSLTISSMEAEDAATYYCQQWSSNPLTFGAGTK
notes: also called mAb4 [24A3]
B4: anti-CD40 12B4 human IgG4 antibody (antibody, V domains shown)
VH: EVQLQQSGPELVKPGASVKMSCKASGYTFTDYVLHWVKQKPGQGLEWIGYINPYNDGTKYNEKFKGKATLTSDKSSSTAYMELSSLTSEDSAVYYCARGYPAYSGYAMDYWGQGTSVTVSS
VL: DIQMTQTTSSLSASLGDRVTISCRASQDISNYLNWYQQKPDGTVKLLIYYTSRLHSGVPSRFSGSGSGTDYSLTISNLEQEDIATYFCHHGNTLPWTFGGGTK
notes: also called mAb3 [12B4]
B5: CP-870,893 formatted as human IgG4 (antibody, V domains shown)
VH: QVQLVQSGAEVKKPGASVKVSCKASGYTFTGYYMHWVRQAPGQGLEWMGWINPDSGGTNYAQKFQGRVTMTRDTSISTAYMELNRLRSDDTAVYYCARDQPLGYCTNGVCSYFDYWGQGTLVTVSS
VL: DIQMTQSPSSVSASVGDRVTITCRASQGIYSWLAWYQQKPGKAPNLLIYTASTLQSGVPSRFSGSGSGTDFTLTISSLQPEDFATYYCQQANIFPLTFGGGTK
notes: also called mAb5 [CP870893]; anti-CD40 CP

Each binder was assayed against T1, cohesin-human CD40 ectodomain protein (P3398) (human) (assay: SPR).
T1 construct: SPR analyte; also called soluble human CD40 ectodomain; liquid phase soluble human CD40 ectodomain; not shown: cohesin domain of P3398 and its junction to CD40
T1 sequence (chain, as listed by the source limits assumed): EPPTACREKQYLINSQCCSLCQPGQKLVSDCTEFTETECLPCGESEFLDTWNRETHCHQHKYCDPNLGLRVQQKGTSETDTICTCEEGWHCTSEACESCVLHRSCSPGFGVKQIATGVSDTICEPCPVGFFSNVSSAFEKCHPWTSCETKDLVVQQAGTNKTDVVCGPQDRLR
In the case of B1, the Kd is reported as 28000 pM.

These binders were tested against T2, human CD40 ectodomain fused to FAS transmembrane and intracellular domains, on CHO cells (human) (assay: cell-based or functional assay).
T2 sequence (chain, as listed by the source limits assumed): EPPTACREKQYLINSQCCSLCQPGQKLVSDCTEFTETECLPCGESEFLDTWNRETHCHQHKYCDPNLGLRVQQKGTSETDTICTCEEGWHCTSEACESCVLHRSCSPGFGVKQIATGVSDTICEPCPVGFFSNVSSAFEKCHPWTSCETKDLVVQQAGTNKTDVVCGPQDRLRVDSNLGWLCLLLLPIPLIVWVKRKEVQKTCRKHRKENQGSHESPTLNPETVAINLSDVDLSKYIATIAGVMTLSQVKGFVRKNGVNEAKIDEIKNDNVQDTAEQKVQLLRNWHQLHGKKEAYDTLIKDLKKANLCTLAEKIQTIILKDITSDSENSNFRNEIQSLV
B1 was tested, and the “EC50 of killing of CD40-FAS CHO cells (loss of MTT reduction)” value was about 1000 pM. B2 was tested, and the “EC50 of killing of CD40-FAS CHO cells (loss of MTT reduction)” value was about 2500 pM.

The binders below were run against T3, human CD40 on cells (B cells, MDDCs, stably transfected CHO cells) (human, UniProt P25942 21-277) (assay: cell-based or functional assay).
T3 sequence (P25942 21-277): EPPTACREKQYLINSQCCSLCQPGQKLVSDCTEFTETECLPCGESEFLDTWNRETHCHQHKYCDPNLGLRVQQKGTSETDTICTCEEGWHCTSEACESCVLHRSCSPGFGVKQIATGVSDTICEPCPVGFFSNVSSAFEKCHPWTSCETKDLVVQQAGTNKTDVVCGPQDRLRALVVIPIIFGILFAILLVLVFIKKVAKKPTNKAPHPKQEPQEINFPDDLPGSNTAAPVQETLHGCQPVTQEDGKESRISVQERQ
In the case of B3, the “EC50 (nM) B cell: dose for 50% of maximum B cell proliferation” value is reported as over 10 nM, the “EC50/EC50 CP, B cell proliferation” value is reported as at least 1000 ratio and the “Δ w/sCD40L (fold): fold difference in B cell proliferation EC50 with constant 6 nM soluble human CD40L” value (“Δ w/sCD40L (fold): fold difference” below) is reported as about 100 fold. For B4, the “EC50/EC50 CP, B cell proliferation” value was about 10 ratio and the “Δ w/sCD40L (fold): fold difference” value was about 0 fold. In the case of B1, the “EC50/EC50 CP, B cell proliferation” value is reported as about 10 ratio and the “Δ w/sCD40L (fold): fold difference” value is reported as about 0 fold. In the case of B2, the “EC50 (nM) B cell: dose for 50% of maximum B cell proliferation” value is reported as at least 10 nM, the “EC50/EC50 CP, B cell proliferation” value is reported as at least 100 ratio and the “EC50 w/sCD40L (nM): B cell proliferation with constant 6 nM soluble human CD40L” value is reported as at least 0.1 nM. For the same binder, the “Δ w/sCD40L (fold): fold difference” value was at least 100 fold. With B5 the “EC50/EC50 CP, B cell proliferation” value was 1 ratio and the “Δ w/sCD40L (fold): fold difference” value was about 0 fold.

Molecular target: T3, human CD40 on cells (B cells, MDDCs, …)
Assay: cell-based or functional assay
Remark: another data set of the same source
B3 was tested, and the “EC50 (nM) cytokines: 50% of maximum cytokine secretion by MDDCs” value was over 10 nM, the “EC50/EC50 CP, MDDC cytokine secretion” value was over 1000 ratio and the “EC50 w/sCD40L (nM): MDDC cytokine secretion with constant suboptimal soluble human CD40L” value was at least 10 nM. The “Δ w/sCD40L (fold): MDDC cytokine secretion EC50” value was over 1000 fold. With B4 the “EC50 (nM) cytokines: 50% of maximum cytokine secretion by MDDCs” value was over 10 nM, the “EC50/EC50 CP, MDDC cytokine secretion” value was at least 100 ratio and the “Δ w/sCD40L (fold): MDDC cytokine secretion EC50” value was about 0 fold. For B1, the “EC50 (nM) cytokines: 50% of maximum cytokine secretion by MDDCs” value was over 10 nM, the “EC50/EC50 CP, MDDC cytokine secretion” value was over 1000 ratio and the “EC50 w/sCD40L (nM): MDDC cytokine secretion with constant suboptimal soluble human CD40L” value was over 10 nM. For the same binder, the “Δ w/sCD40L (fold): MDDC cytokine secretion EC50” value was about 0 fold. With B2 the “EC50 (nM) cytokines: 50% of maximum cytokine secretion by MDDCs” value was over 10 nM, the “EC50/EC50 CP, MDDC cytokine secretion” value was over 1000 ratio and the “EC50 w/sCD40L (nM): MDDC cytokine secretion with constant suboptimal soluble human CD40L” value was at least 0.1 nM. The “Δ w/sCD40L (fold): MDDC cytokine secretion EC50” value was over 1000 fold. In the case of B5, the “EC50 (nM) cytokines: 50% of maximum cytokine secretion by MDDCs” value is reported as about 0.1 nM, the “EC50/EC50 CP, MDDC cytokine secretion” value is reported as 1 ratio and the “EC50 w/sCD40L (nM): MDDC cytokine secretion with constant suboptimal soluble human CD40L” value is reported as at least 0.01 nM. For the same binder, the “Δ w/sCD40L (fold): MDDC cytokine secretion EC50” value was about 100 fold.

What follows are binders tested against T4, human CD40 ectodomain mouse Fc fusion protein (human, UniProt P25942 21-193) (assay: competition, flow cytometry: mAb pre-incubated with CD40 ectodomain-Fc, then CD40L-transfected L cells).
T4 construct: a human Fc version was used with the mouse mAbs; also called soluble CD40
B5 was tested, and the “fold higher antibody level required to partially block CD40 binding to CD40L, against the stoichiometric amounts of 12B4 and 12E12” value was over 20 fold.

Each binder was assayed against T1, cohesin-human CD40 ectodomain protein … (assay: SPR (SensiQ Pioneer), hIgG4 mAb captured on Protein A/G, cohesin-human CD40 ectodomain in solution).
With B3 the Kd was 97000 pM, the koff was 0.008 s⁻¹ and the kon was 83000 M⁻¹ s⁻¹. B4 was tested, and the Kd was 100000 pM, the koff was 0.027 s⁻¹ and the kon was 250000 M⁻¹ s⁻¹. Binder B1 has a Kd of 33000 pM, a koff of 0.0046 s⁻¹ and a kon of 150000 M⁻¹ s⁻¹. B2 gave a Kd of 217000 pM, a koff of 0.064 s⁻¹ and a kon of 300000 M⁻¹ s⁻¹. Work on B5 yielded a Kd of 71000 pM, a koff of 0.0022 s⁻¹ and a kon of 46000 M⁻¹ s⁻¹.

These binders were tested against T3, human CD40 on cells (B cells, MDDCs, …) (assay: flow cytometry, stably transfected CHO cells, 1 h on ice, goat anti-human IgG-PE, % of events in gate P1 [panel CD40 CHO]).
With B1 the “EC50 (read off the curve)” value was about 0.3 pM. With B2 the “EC50 (read off the curve)” value was about 0.2 pM. In the case of B5, the “EC50 (read off the curve)” value is reported as about 3 pM.

The binders below were run against T2, human CD40 ectodomain fused to FAS … (assay: flow cytometry, stably transfected CHO cells, 1 h on ice, goat anti-human IgG-PE, % of events in gate P1 [panel WT CD40-FAS CHO]).
For B1, the “EC50 (read off the curve)” value was about 0.5 pM. For B2, the “EC50 (read off the curve)” value was about 0.3 pM. With B5 the “EC50 (read off the curve)” value was about 4 pM.

The binders below were run against CD40 E28A FAS (mutated CD40 ectodomain fused to FAS) on CHO cells (human) (assay: flow cytometry, stably transfected CHO cells, 1 h on ice, goat anti-human IgG-PE, % of events in gate P1 [panel CD40 E28A FAS CHO]).
CD40 E28A FAS (mutated CD40 ectodomain fused to FAS) on CHO cells (human), sequence (chain, as listed by the source E28A E28A): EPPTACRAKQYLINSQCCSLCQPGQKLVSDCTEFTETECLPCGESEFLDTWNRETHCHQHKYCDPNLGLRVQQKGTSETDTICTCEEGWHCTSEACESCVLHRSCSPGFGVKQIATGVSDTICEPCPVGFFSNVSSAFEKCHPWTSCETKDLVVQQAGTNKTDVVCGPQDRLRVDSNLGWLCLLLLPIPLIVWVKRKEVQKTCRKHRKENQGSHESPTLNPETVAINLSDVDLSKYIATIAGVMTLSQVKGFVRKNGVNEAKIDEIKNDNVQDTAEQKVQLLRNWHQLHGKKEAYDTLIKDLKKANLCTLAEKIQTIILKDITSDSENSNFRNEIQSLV
In the case of B1, the “EC50 (read off the curve)” value is reported as about 0.2 pM. With B2 the “EC50 (read off the curve)” value was about 0.2 pM. With B5 the “EC50 (read off the curve)” value was about 10 pM.

The binders below were run against CD40 R27A FAS (mutated CD40 ectodomain fused to FAS) on CHO cells (human) (assay: flow cytometry, stably transfected CHO cells, 1 h on ice, goat anti-human IgG-PE, % of events in gate P1 [panel CD40 R27A FAS CHO]).
CD40 R27A FAS (mutated CD40 ectodomain fused to FAS) on CHO cells (human), sequence (chain, as listed by the source R27A R27A): as the sequence (chain, as listed by the source E28A E28A) above, with R7A, A8E counted along it
In the case of B1, the “EC50 (read off the curve)” value is reported as about 0.3 pM. In the case of B2, the “EC50 (read off the curve)” value is reported as about 0.3 pM. B5: no binding.

What follows are binders tested against T4, human CD40 ectodomain mouse Fc fusion … (assay: competition flow cytometry: human IgG4 mAb titrated into 2 ug/ml human CD40 ectodomain-mouse Fc, 1 h on ice, then added to human CD40L-transfected L cells; cell-bound CD40-Fc detected with anti-IgG-PE; blocked ligand: CD40L on L cells [right panel]).
B4 was tested, and the “IC50 (read off the curve)” value was about 0.2 µg/mL. With B1 the “IC50 (read off the curve)” value was about 0.5 µg/mL.
